Results on one substance are retold here after US20160303253A1.

This test has as its target Human trophoblast cell-surface antigen (TROP-2) (human) (UniProt P09758). The test is described as follows: cell-based or functional assay.

Sequence of Human trophoblast cell-surface antigen (TROP-2) (human) (P09758 27-323): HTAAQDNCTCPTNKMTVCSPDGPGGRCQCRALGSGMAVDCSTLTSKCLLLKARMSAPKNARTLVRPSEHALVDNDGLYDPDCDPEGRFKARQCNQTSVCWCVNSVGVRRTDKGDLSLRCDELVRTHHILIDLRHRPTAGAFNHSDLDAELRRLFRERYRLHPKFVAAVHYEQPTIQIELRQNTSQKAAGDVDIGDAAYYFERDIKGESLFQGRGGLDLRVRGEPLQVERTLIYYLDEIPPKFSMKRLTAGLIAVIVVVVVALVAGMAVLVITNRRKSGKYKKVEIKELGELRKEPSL

For hRS7-CL2A-SN-38 (antibody), the ADC/free SN-38 ratio of IC50, in vitro cytotoxicity, BxPC-3 is 2.8; the ADC/free SN-38 ratio of IC50, in vitro cytotoxicity, COLO 205 was 1.91; the ADC/free SN-38 ratio of IC50, in vitro cytotoxicity, Calu-3 is 1.39; the ADC/free SN-38 ratio of IC50, in vitro cytotoxicity, Capan-1 was 2. Also, the ADC/free SN-38 ratio of IC50, in vitro cytotoxicity, PC-3 came to 2.28 and the ADC/free SN-38 ratio of IC50, in vitro cytotoxicity, SK-MES-1 is 2.69.
